Measured values as given in publication doi:10.1101/2020.06.27.175497, “Novel mode of filament formation in UPA-promoted CARD8 and NLRP1 Inflammasomes” (bioRxiv, 2020).
Values belong to the binder of their own block, whether it stands above or below them.

B1: NLRP1-CT (UPA-CARD fragment of NLRP1, S1213-S1473) (domain or fragment, human, UniProt Q9C000-1 1213-1473, looked up)
chain: SPLGVLLKMIHNALRFIPVTSVVLLYHRVHPEEVTFHLYLIPSDCSIRKAIDDLEMKFQFVRIHKPPPLTPLYMGCRYTVSGSGSGMLEILPKELELCYRSPGEDQLFSEFYVGHLGSGIRLQVKDKKDETLVWEALVKPGDLMPATTLIPPARIAVPSPLDAPQLLHFVDQYREQLIARVTSVEVVLDKLHGQVLSQEQYERVLAENTRPSQMRKLFSLSQSWDRKCKDGLYQALKETHPHLIMELWEKGSKKGLLPLSS
notes: NLRP1, human, UPA-CARD fragment S1213-S1473, isoform 1 (Q9C000-1); Forms thick helical filaments of CARD dimers; the purified filaments still held some uncleaved His-MBP-tagged subunits; Only the CARD is resolved in the map; also called NLRP1^UPA-CARD; source: E. coli BL21 (DE3), purified (amylose resin, Superose 6, MBP-3C protease cleavage, Superose 6 void fraction); not shown: His, …
B4: caspase-1^CARD (1-95) G20K (domain or fragment, UniProt P29466 1-95, looked up)
chain: MADKVLKEKRKLFIRSMGEKTINGLLDELLQTRVLNKEEMEKVKRENATVMDKTRALIDSVIPKGAQACQICITYICEEDSYLAGTLGLSADQTS
notes: caspase-1, CARD, residues 1-95; Stood in the experiment on one chain with ASC^CARD W169G through a 5 x GSS linker (fusion m9); also called CASP1^CARD; type IIb G20K mutant of caspase-1^CARD; source: E. coli BL21 (DE3), purified (Ni-NTA, TEV cleavage, amylose flow-through, Superdex 200), as part of the fusion m9
B7: CARD8-CT (UPA-CARD fragment of CARD8, S297-L537) (domain or fragment, human, UniProt Q9Y2G2-5 297-537, looked up)
chain: SLMGILLRIASGTRLSIPITSNTLIYYHPHPEDIKFHLYLVPSDALLTKAIDDEEDRFHGVRLQTSPPMEPLNFGSSYIVSNSANLKVMPKELKLSYRSPGEIQHFSKFYAGQMKEPIQLEITEKRHGTLVWDTEVKPVDLQLVAASAPPPFSGAAFVKENHRQLQARMGDLKGVLDDLQDNEVLTENEKELVEQEKTRQSKNEALLSMVEKKGDLALDVLFRSISERDPYLVSYLRQQNL
notes: CARD8, human, UPA-CARD fragment S297-L537 of the T60 isoform; numbers count on: the T60 isoform Q9Y2G2-5; Forms helical filaments; the purified filaments still held some uncleaved His-MBP-tagged subunits; Only the CARD is resolved in the map; also called CARD8^UPA-CARD; source: E. coli BL21 (DE3), purified (amylose resin, MBP-3C protease cleavage, Superose 6 void fraction); not shown: His, …

How the values were obtained:
[1] = molecular target: the molecule itself; test: negative-stain EM of filaments formed in vitro; recombinant MBP-tagged protein cleaved with 3C protease, sample stained with 1% uranyl formate and imaged
[2] = molecular target: the molecule itself; test: SEC; amylose eluate of His-MBP-NLRP1-CT on Superose 6 in 25 mM Tris-HCl pH 7.5, 150 mM NaCl, 1 mM TCEP; a range of small oligomers
[3] = molecular target: B1; test: SEC; after partial 3C cleavage, filaments recovered from the Superose 6 void fraction; SDS-PAGE of the fraction shows uncleaved MBP-tagged protein; conditions: both partners purified
[4] = molecular target: B4; test: cryo-EM structure; purified ASC^CARD-caspase-1^CARD octamer (tetramer of the fusion protein); single-particle reconstruction; conditions: both partners purified
[5] = molecular target: the molecule itself; test: as above
[6] = molecular target: the molecule itself; test: SEC-MALS; Superdex 200 in 25 mM Tris-HCl pH 8.0, 150 mM NaCl, 2 mM DTT; three-angle light scattering and refractive index detectors
[7] = molecular target: the molecule itself; test: cryo-EM structure; purified CARD8 CT filaments (Superose 6 void fraction), A280 = 0.75; 25 mM Tris-HCl pH 7.5, 150 mM NaCl, 1 mM TCEP; helical reconstruction
[8] = molecular target: B7; test: SEC; after partial 3C cleavage, filaments recovered from the Superose 6 void fraction; SDS-PAGE of the fraction shows uncleaved MBP-tagged protein; conditions: both partners purified

Binder: B1
binding result [1]: binds

binding result [3]: binds
B2: His-MBP-3C-UPA-CARD of NLRP1 (uncleaved MBP fusion of NLRP1-CT) (domain or fragment, human, UniProt Q9C000-1 1213-1473, looked up)
chain: SPLGVLLKMIHNALRFIPVTSVVLLYHRVHPEEVTFHLYLIPSDCSIRKAIDDLEMKFQFVRIHKPPPLTPLYMGCRYTVSGSGSGMLEILPKELELCYRSPGEDQLFSEFYVGHLGSGIRLQVKDKKDETLVWEALVKPGDLMPATTLIPPARIAVPSPLDAPQLLHFVDQYREQLIARVTSVEVVLDKLHGQVLSQEQYERVLAENTRPSQMRKLFSLSQSWDRKCKDGLYQALKETHPHLIMELWEKGSKKGLLPLSS
notes: NLRP1, human, UPA-CARD fragment S1213-S1473, isoform 1 (Q9C000-1); HRV 3C protease linker between MBP and UPA-CARD; modified pDB-His-MBP vector; also called MBP-fusion protein; MBP-CT fusion protein; source: E. coli BL21 (DE3), purified (amylose resin, Superose 6); not shown: His, N-terminal, kept; MBP, N-terminal, kept
binding result [2]: binds

binding result [4]: binds
B3: ASC^CARD (106-195) W169G (domain or fragment, UniProt Q9ULZ3 106-195, looked up)
chain: SAAKPGLHFIDQHRAALIARVTNVEWLLDALYGKVLTDEQYQAVRAEPTNPSKMRKLFSFTPAGNWTCKDLLLQALRESQSYLVEDLERS
notes: ASC, CARD, residues 106-195; Stood in the experiment on one chain with caspase-1^CARD G20K through a 5 x GSS linker (fusion m9); also called type IIa W169G mutant of ASC^CARD; source: E. coli BL21 (DE3), purified (Ni-NTA, TEV cleavage, amylose flow-through, Superdex 200), as part of the fusion m9
binding result [5]: binds

Binder: B4
binding result [5]: binds

B5: NLRP1^CARD (D1374-S1473, with G1463C) (domain or fragment, human, UniProt Q9C000-1 1374-1473, looked up)
chain: DAPQLLHFVDQYREQLIARVTSVEVVLDKLHGQVLSQEQYERVLAENTRPSQMRKLFSLSQSWDRKCKDGLYQALKETHPHLIMELWEKCSKKGLLPLSS
notes: NLRP1, human, CARD D1374-S1473, isoform 1 (Q9C000-1); G1463C (helix alpha6) was added for cysteine labelling in the constructs for in vitro analyses; The cleavage of the tag is described for the CARD8^CARD filament assay; also called CARD alone; WT CARD; source: E. coli BL21 (DE3), purified as monomeric MBP-CARD (amylose resin, Superdex 200), filaments formed in vitro
binding result [1]: binds

B6: ASC^CARD (106-195, W169G) - 5 x GSS linker - caspase-1^CARD (1-95, G20K) fusion protein (other)
chain: SAAKPGLHFIDQHRAALIARVTNVEWLLDALYGKVLTDEQYQAVRAEPTNPSKMRKLFSFTPAGNWTCKDLLLQALRESQSYLVEDLERSGSSGSSGSSGSSGSSMADKVLKEKRKLFIRSMGEKTINGLLDELLQTRVLNKEEMEKVKRENATVMDKTRALIDSVIPKGAQACQICITYICEEDSYLAGTLGLSADQTS
notes: ASC, CARD, residues 106-195; 5 x GSS linker, written out from '5XGSS'; caspase-1, CARD, residues 1-95; Tetramer of the fusion = octamer of CARDs; also called ASC^CARD-caspase-1^CARD fusion protein; ASC^CARD-CASP1^CARD; source: E. coli BL21 (DE3), purified (Ni-NTA, TEV cleavage, amylose flow-through, Superdex 200); not shown: His6, N-terminal, cleaved; MBP, N-terminal, cleaved
stoichiometry N [6]: 4

Binder: B7
binding result [7]: binds

binding result [8]: binds
B8: His-MBP-3C-UPA-CARD of CARD8 (uncleaved MBP fusion of CARD8-CT) (domain or fragment, human, UniProt Q9Y2G2-5 297-537, looked up)
chain: SLMGILLRIASGTRLSIPITSNTLIYYHPHPEDIKFHLYLVPSDALLTKAIDDEEDRFHGVRLQTSPPMEPLNFGSSYIVSNSANLKVMPKELKLSYRSPGEIQHFSKFYAGQMKEPIQLEITEKRHGTLVWDTEVKPVDLQLVAASAPPPFSGAAFVKENHRQLQARMGDLKGVLDDLQDNEVLTENEKELVEQEKTRQSKNEALLSMVEKKGDLALDVLFRSISERDPYLVSYLRQQNL
notes: CARD8, human, UPA-CARD fragment S297-L537 of the T60 isoform; numbers count on: the T60 isoform Q9Y2G2-5; HRV 3C protease linker between MBP and UPA-CARD; modified pDB-His-MBP vector; also called MBP-fusion protein; MBP-CT fusion protein; source: E. coli BL21 (DE3), purified (amylose resin); not shown: His, N-terminal, kept; MBP, N-terminal, kept
